# Data from PMC9638904, “Structure and mechanism of the type I-G CRISPR effector” (Nucleic Acids Research, 2022).
# T1: Csb2 (Thioalkalivibrio sulfidiphilus HL-EbGr7, UniProt B8GLG2 1-516)
# T1 sequence: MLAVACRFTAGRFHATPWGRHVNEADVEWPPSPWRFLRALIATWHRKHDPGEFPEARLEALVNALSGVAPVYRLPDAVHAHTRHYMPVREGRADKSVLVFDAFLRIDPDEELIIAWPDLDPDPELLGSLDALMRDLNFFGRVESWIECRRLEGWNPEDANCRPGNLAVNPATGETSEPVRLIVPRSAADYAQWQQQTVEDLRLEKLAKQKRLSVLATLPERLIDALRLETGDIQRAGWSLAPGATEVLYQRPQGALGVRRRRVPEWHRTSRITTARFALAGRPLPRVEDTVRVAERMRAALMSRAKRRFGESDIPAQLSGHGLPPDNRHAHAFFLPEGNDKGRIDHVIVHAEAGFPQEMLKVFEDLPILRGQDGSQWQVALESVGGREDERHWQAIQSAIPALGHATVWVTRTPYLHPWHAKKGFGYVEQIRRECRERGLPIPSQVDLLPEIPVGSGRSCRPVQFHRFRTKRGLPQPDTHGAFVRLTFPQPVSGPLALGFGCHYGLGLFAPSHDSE
# T2: Csb2 N-terminal (Cas5-like) domain (Thioalkalivibrio sulfidiphilus HL-EbGr7, UniProt B8GLG2 1-259)
# T2 sequence: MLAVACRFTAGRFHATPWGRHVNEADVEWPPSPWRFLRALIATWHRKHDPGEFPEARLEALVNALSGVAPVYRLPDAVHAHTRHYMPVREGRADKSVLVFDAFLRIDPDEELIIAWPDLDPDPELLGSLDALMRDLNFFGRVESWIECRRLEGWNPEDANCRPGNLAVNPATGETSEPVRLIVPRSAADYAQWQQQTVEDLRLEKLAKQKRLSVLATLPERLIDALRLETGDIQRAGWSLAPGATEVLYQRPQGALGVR
# T3: Csb2;Cas7 (Thioalkalivibrio sulfidiphilus …, UniProt B8GLG2;B8GLG3 1-516;1-316, |)
# T3 sequence 1: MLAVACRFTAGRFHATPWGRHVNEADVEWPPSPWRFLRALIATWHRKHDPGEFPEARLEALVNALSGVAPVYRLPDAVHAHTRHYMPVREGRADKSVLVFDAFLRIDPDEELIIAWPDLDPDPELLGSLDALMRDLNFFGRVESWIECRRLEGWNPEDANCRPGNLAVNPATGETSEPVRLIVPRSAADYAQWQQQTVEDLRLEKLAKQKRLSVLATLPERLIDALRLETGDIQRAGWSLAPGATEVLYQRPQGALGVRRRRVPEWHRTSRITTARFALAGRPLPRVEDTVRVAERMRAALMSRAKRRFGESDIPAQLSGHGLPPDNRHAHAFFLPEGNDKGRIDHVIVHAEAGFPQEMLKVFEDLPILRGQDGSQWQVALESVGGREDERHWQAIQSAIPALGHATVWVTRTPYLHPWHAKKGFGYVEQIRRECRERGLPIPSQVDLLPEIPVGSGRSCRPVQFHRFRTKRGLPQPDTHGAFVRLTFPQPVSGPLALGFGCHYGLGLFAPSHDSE
# T3 sequence 2: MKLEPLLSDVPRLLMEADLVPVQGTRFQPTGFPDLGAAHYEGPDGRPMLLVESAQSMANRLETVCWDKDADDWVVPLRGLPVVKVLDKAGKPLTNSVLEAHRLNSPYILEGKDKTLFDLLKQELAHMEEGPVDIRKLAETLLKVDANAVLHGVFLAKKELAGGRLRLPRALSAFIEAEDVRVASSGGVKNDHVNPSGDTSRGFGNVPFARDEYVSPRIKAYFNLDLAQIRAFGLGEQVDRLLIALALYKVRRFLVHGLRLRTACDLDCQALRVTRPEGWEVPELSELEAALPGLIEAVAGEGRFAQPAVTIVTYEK
# T4: Cas3 (Thioalkalivibrio sulfidiphilus HL-EbGr7, UniProt B8GLG5 1-828)
# T4 sequence: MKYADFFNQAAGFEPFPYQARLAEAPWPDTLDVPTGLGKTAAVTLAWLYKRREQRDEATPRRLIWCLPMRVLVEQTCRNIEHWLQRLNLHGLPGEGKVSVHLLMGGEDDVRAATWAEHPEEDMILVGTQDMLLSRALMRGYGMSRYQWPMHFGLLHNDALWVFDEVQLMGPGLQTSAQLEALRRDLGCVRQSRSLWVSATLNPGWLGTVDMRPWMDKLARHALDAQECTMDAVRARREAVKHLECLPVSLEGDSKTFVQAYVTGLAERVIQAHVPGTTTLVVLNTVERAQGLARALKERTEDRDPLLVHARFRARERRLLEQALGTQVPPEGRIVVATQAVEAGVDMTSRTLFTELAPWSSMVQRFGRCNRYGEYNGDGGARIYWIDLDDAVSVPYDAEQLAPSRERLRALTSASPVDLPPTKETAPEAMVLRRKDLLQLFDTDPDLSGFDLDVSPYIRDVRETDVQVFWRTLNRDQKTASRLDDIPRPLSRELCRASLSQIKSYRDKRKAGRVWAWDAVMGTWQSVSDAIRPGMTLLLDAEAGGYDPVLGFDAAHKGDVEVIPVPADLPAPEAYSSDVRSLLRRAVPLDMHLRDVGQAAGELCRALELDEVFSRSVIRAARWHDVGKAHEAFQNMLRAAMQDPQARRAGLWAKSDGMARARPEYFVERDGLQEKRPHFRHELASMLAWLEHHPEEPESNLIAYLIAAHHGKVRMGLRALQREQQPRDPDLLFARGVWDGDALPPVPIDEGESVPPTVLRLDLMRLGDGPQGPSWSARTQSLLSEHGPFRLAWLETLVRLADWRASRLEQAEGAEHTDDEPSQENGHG
# Experiments:
# Csb2 [1] = target: T1, Csb2; assay: fluorescence anisotropy; no appreciable binding; Anisotropy: 25 nM RNA, 50 mM NaCl, 1 mM DTT, 5 mM MgCl2, 1 mM EDTA, 0.1 U/ul RNase inhibitor, 37 C; EMSA/plasmid: 20 mM Tris-HCl, 50 mM NaCl, 1 mM DTT, 0.1 mg/ml BSA, 5 mM MgCl2, 1 mM EDTA, 37 C (30 min EMSA, 1 h plasmid); conditions: protein: recombinant; tags: cloning described in pET-Duet and pEV5HisTEV; His8-TEV tag removed
# [2] = target: T2, Csb2 N-terminal (Cas5-like) domain; assay: fluorescence anisotropy; Anisotropy: 25 nM RNA, 50 mM NaCl, 1 mM DTT, 5 mM MgCl2, 1 mM EDTA, 0.1 U/ul RNase inhibitor, 37 C; EMSA/plasmid: 20 mM Tris-HCl, 50 mM NaCl, 1 mM DTT, 0.1 mg/ml BSA, 5 mM MgCl2, 1 mM EDTA, 37 C (30 min EMSA, 1 h plasmid); conditions: protein: recombinant, tags: N-terminal His8-TEV, removed
# Csb2;Cas7;Cas8g;Cas3 = Csb2;Cas7;Cas8g;Cas3 (Thioalkalivibrio sulfidiphilus …, UniProt B8GLG2;B8GLG3;B8GLG4;B8GLG5 1-516;1-316;1-720;1-828, |||); assay: EMSA; 0.8 uM effector; near-complete shift; Anisotropy: 25 nM RNA, 50 mM NaCl, 1 mM DTT, 5 mM MgCl2, 1 mM EDTA, 0.1 U/ul RNase inhibitor, 37 C; EMSA/plasmid: 20 mM Tris-HCl, 50 mM NaCl, 1 mM DTT, 0.1 mg/ml BSA, 5 mM MgCl2, 1 mM EDTA, 37 C (30 min EMSA, 1 h plasmid); conditions: protein: recombinant;recombinant;recombinant;recombinant; tags: cloning described in pET-Duet and pEV5HisTEV; copies: 1;7;1;1; label: 32P 5' end on DNA; crRNA / target strand / non-target strand; target strand as printed has 1 nt 5' overhang
# Csb2;Cas7 = target: T3, Csb2;Cas7; assay: EMSA; 0.8 uM effector; no Cas8g, no Cas3; no apparent shift; Anisotropy: 25 nM RNA, 50 mM NaCl, 1 mM DTT, 5 mM MgCl2, 1 mM EDTA, 0.1 U/ul RNase inhibitor, 37 C; EMSA/plasmid: 20 mM Tris-HCl, 50 mM NaCl, 1 mM DTT, 0.1 mg/ml BSA, 5 mM MgCl2, 1 mM EDTA, 37 C (30 min EMSA, 1 h plasmid); conditions: protein: recombinant;recombinant, tags: cloning described in pET-Duet and pEV5HisTEV, His8-TEV tag removed;N-terminal His8-TEV, copies: 1;7, label: 32P 5' end on DNA, crRNA / target strand / non-target strand, target strand as printed has 1 nt 5' overhang
# Cas3 = target: T4, Cas3; assay: EMSA; Cas3 alone; TS- or NTS-labelled; Anisotropy: 25 nM RNA, 50 mM NaCl, 1 mM DTT, 5 mM MgCl2, 1 mM EDTA, 0.1 U/ul RNase inhibitor, 37 C; EMSA/plasmid: 20 mM Tris-HCl, 50 mM NaCl, 1 mM DTT, 0.1 mg/ml BSA, 5 mM MgCl2, 1 mM EDTA, 37 C (30 min EMSA, 1 h plasmid); conditions: protein: recombinant; tags: N-terminal His8-TEV, removed; label: 32P on TS or NTS (EMSA); 1 nt 5' overhang on strand 1 as printed
# [3] = target: the molecule itself; assay: cryo-EM structure; SEC-purified complex of Cas7, Cas8g, Csb2 and 72 nt crRNA, 1 mg/ml; Titan Krios 300 kV; multibody refinement for Cas8g (~8 Å)
# Csb2 [4] = target: T1, Csb2; assay: fluorescence anisotropy; 5 mM MgCl2, 1 mM EDTA; Anisotropy: 25 nM RNA, 50 mM NaCl, 1 mM DTT, 5 mM MgCl2, 1 mM EDTA, 0.1 U/ul RNase inhibitor, 37 C; EMSA/plasmid: 20 mM Tris-HCl, 50 mM NaCl, 1 mM DTT, 0.1 mg/ml BSA, 5 mM MgCl2, 1 mM EDTA, 37 C (30 min EMSA, 1 h plasmid); conditions: protein: recombinant; tags: cloning described in pET-Duet and pEV5HisTEV; His8-TEV tag removed; label: 5'-6-FAM; hairpin
binder,measurement,setting,value
AUUGAAGC (ssRNA) [8 nt 5' handle RNA],binding result,Csb2 [1],no binding
same,binding result,[2],no binding
Tet crRNA with 80 bp target dsDNA (mixed) RNA: AUUGAAGCAAGCUGUCCCUGAUGGUCGUCAUCUACCUGCCUGGAGUCAUCCGCGGCAUUUAGCCGCGGCCUC DNA 1: GCCCGCGTTGCAGGCCATGCTGTCCAGGCAGGTAGATGACGACCATCAGGGACAGCTTCAAGGATCGCTCGCGGCTCTTAC DNA 2: GTAAGAGCCGCGAGCGATCCTTGAAGCTGTCCCTGATGGTCGTCATCTACCTGCCTGGACAGCATGGCCTGCAACGCGGG,binding result,Csb2;Cas7;Cas8g;Cas3,binds
same,binding result,Csb2;Cas7,no binding
80 bp target dsDNA (no crRNA) (dsDNA) DNA 1: GCCCGCGTTGCAGGCCATGCTGTCCAGGCAGGTAGATGACGACCATCAGGGACAGCTTCAAGGATCGCTCGCGGCTCTTAC DNA 2: GTAAGAGCCGCGAGCGATCCTTGAAGCTGTCCCTGATGGTCGTCATCTACCTGCCTGGACAGCATGGCCTGCAACGCGGG,binding result,Cas3,no binding
"Cas7 (type I-G CRISPR effector subunit, Thioalkalivibrio sulfidiphilus HL-EbGr7) (natural protein, UniProt B8GLG3 1-316, looked up, synthetic gene, codon-optimised for E. coli; Seven copies stand on the crRNA in the Cascade complex; also called Cas7.1 to Cas7.7 (the seven copies in the complex); source: E. coli C43(DE3), purified (HisTrap, TEV cleavage, gel filtration); not shown: His8, N-terminal, cleaved) MKLEPLLSDVPRLLMEADLVPVQGTRFQPTGFPDLGAAHYEGPDGRPMLLVESAQSMANRLETVCWDKDADDWVVPLRGLPVVKVLDKAGKPLTNSVLEAHRLNSPYILEGKDKTLFDLLKQELAHMEEGPVDIRKLAETLLKVDANAVLHGVFLAKKELAGGRLRLPRALSAFIEAEDVRVASSGGVKNDHVNPSGDTSRGFGNVPFARDEYVSPRIKAYFNLDLAQIRAFGLGEQVDRLLIALALYKVRRFLVHGLRLRTACDLDCQALRVTRPEGWEVPELSELEAALPGLIEAVAGEGRFAQPAVTIVTYEK",stoichiometry N,[3],7
GUCAUCCGCGGCAUUUAGCCGCGGCCUC (structured_RNA) [3' hairpin RNA (28 nt)],Kd,Csb2 [4],43 nM
same,binding result,"[2]; label: 5'-6-FAM, hairpin",no binding
GUCAUCCGCGGCAUUUAGCCGCGGCCUCAUUGAAGC (structured_RNA) [CRISPR repeat RNA (36 nt)],Kd,Csb2 [4],55 nM
same,binding result,"[2]; label: 5'-6-FAM, hairpin",no binding
